Consider one substance from US20170058319A1, “NANOSENSOR FOR ASSESSING THROMBIN INHIBITORS” (VIRGINIA COMMONWEALTH UNIVERSITY, priority 2014, published 2017).

Assay [1] deals with Au-TH nanoprobe (gold nanoparticles covalently linked to bovine α-thrombin) (bovine) (UniProt P00735). The assay can be described thus: cell-based or functional assay.
Assay [2] shares this target. Nature of the assay: displacement of HirP from the Au-TH nanoprobe by AT at 1 µM, 1 h incubation.
For assay [3] the target is unchanged. Nature of the assay: displacement of HirP from the Au-TH nanoprobe by AT at 10 µM, 1 h incubation.
For assay [4] the target is unchanged. Nature of the assay: displacement of HirP from the Au-TH nanoprobe by AT at 100 µM, 1 h incubation.

Sequence of Antithrombin (AT) (P01008 33-464): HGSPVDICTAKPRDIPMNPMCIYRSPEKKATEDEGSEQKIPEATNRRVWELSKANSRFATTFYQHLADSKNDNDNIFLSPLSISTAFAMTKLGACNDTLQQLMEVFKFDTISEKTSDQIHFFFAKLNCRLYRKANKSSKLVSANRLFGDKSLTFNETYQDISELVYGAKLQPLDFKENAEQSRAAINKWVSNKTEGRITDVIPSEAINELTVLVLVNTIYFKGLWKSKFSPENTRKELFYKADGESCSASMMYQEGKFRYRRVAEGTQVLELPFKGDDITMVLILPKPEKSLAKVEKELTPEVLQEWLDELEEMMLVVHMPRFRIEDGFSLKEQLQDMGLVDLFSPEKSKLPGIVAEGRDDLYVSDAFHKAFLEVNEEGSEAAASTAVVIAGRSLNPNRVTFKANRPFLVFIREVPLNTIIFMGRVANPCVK

As to Antithrombin (AT), the neutralization of surface bound thrombin (chromogenic substrate hydrolysis) in assay [1] is less than 60%. In addition, the increase in fluorescence at 525 nm is 40% in assay [2], 25% in assay [3] and 20% in assay [4].
